1 molecule from patent US12098206B2, “PDGF receptor antibody and use thereof” (Seoul National University R&DB Foundation, priority 2018, dated 2024) can be followed below.

In this experiment the test system is NIH3T3 cells. Put plainly: Internalization analysis by confocal microscopy in NIH3T3 cells. The format is cell-based, mouse. The note with it: 10 μg/mL, 37° C., 30 minutes, FIG. 4c. As for the experimental part:
The bispecific antibody of scFv-Cκ-scFv fusion protein was analyzed with a confocal microscope for visualizing internalization. NIH3T3 cells were treated with the bispecific antibody of scFv-Cκ-scFv (10 μg/mL) diluted in DMEM containing 10% FBS, and internalized at 37° C. for 30 minutes. After washing the cells 3 times with cold PBS, acidic buffer (0.2 M acetic acid, 0.5 M sodium chloride) was treated at room temperature for 5 minutes to remove the antibody bound to the cell surface. Cells were washed twice with cold PBS, fixed with 4% paraformaldehyde for 10 minutes, and then subjected to immunofluorescence staining as previously described [J. M. Lim et al., J. Cell. Biol. 210 (2015) 23].
Briefly, to block antibodies having non-specific reaction, cells were incubated in PBS containing 5% horse serum and 0.1% Triton X-100 for 30 minutes, and 2 μg/mL FITC-anti human Cκ antibody (TB28-2, BD Biosciences) was added at room temperature for 30 minutes. To image the initial endosomes, the cells were washed 3 times with PBS, incubated with PBS containing 5% horse serum and 0.1% Triton X-100 for 30 minutes, and then incubated with ati-RabS antibody diluted to 1:200 (C8B1, Cell Signaling Technology, Danvers, MA, USA). Alexa Fluor 546 goat anti-rabbit IgG (A-11035, Invitrogen) was sequentially treated. Cells were treated with 0.2 μg/mL DAPI to detect DNA. Confocal microscopy images were obtained using a Zeiss LSM 880 microscope, and images were analyzed with Zen software (Carl Zeiss, Thornwood, NY, USA).
To measure the cellular internalization of the bispecific antibody of scFv-Cκ-scFv, anti-mPDGFR-β x cotinine scFv-Cκ-scFv fusion protein was incubated in NIH3T3 cells, and then treated with FITC-anti-human Cκ antibody and endosome-specific antibody. It was imaged using a confocal microscope. […] When the images were merged, the present inventors confirmed that the fluorescence of the three antibody clones and the endosome-specific antibody were co-localized.

B1: PRb-CN01: anti-mPDGFR-β chicken scFv clone (VH SEQ ID NO 7, VL SEQ ID NO 8), tested as scFv-Cκ-anti-cotinine scFv bispecific antibody (antibody, V domains shown)
VH: AVTLDESGGGLQTPGGALSLVCKASGFTFSDRAMHWVRQAPGKGLEWVGLITNTGGSTNYGAAVKGRATISRDNGQSTVRLQLNNLRAEDTGTYYCTRGVGSWAHGGRIDAWGHGTEVIVSS
VL: LTQPSSVSANPGETVKITCSGGSGSYGWFQQKSPGSAPVTVIYSNNQRPSDIPSRFSGSKSGSTNTLTITGVQAEDEAIYYCGTRDSSYVGIFGAGTTLTVL
modifications: VH of PRb-CN01; VL of PRb-CN01
In the case of B1, the cellular internalization entry is on record as “Intracellular fluorescence was detected”.
